The values below are quoted from earlier work in patent US20060104951A1, “Akt and regulation of RA synovial fibroblast apoptosis” (priority 2004, published 2006).

The subject of this series is Akt. The conditions noted are these: Cell: HL-60.

B1: Focal adhesion kinase: pathway kinase whose overexpression activates Akt in HL-60 (protein, UniProt Q05397 2-1052, looked up)
Focal adhesion kinase 1: AAAYLDPNLNHTPNSSTKTHLGTGMERSPGAMERVLKVFHYFESNSEPTTWASIIRHGDATDVRGIIQKIVDSHKVKHVACYGFRLSHLRSEEVHWLHVDMGVSSVREKYELAHPPEEWKYELRIRYLPKGFLNQFTEDKPTLNFFYQQVKSDYMLEIADQVDQEIALKLGCLEIRRSYWEMRGNALEKKSNYEVLEKDVGLKRFFPKSLLDSVKAKTLRKLIQQTFRQFANLNREESILKFFEILSPVYRFDKECFKCALGSSWIISVELAIGPEEGISYLTDKGCNPTHLADFTQVQTIQYSNSEDKDRKGMLQLKIAGAPEPLTVTAPSLTIAENMADLIDGYCRLVNGTSQSFIIRPQKEGERALPSIPKLANSEKQGMRTHAVSVSETDDYAEIIDEEDTYTMPSTRDYEIQRERIELGRCIGEGQFGDVHQGIYMSPENPALAVAIKTCKNCTSDSVREKFLQEALTMRQFDHPHIVKLIGVITENPVWIIMELCTLGELRSFLQVRKYSLDLASLILYAYQLSTALAYLESKRFVHRDIAARNVLVSSNDCVKLGDFGLSRYMEDSTYYKASKGKLPIKWMAPESINFRRFTSASDVWMFGVCMWEILMHGVKPFQGVKNNDVIGRIENGERLPMPPNCPPTLYSLMTKCWAYDPSRRPRFTELKAQLSTILEEEKAQQEERMRMESRRQATVSWDSGGSDEAPPKPSRPGYPSPRSSEGFYPSPQHMVQTNHYQVSGYPGSHGITAMAGSIYPGQASLLDQTDSWNHRPQEIAMWQPNVEDSTVLDLRGIGQVLPTHLMEERLIRQQQEMEEDQRWLEKEERFLKPDVRLSRGSIDREDGSLQGPIGNQHIYQPVGKPDPAAPPKKPPRPGAPGHLGSLASLSSPADSYNEGVKLQPQEISPPPTANLDRSNDKVYENVTGLVKAVIEMSSKIQPAPPEEYVPMVKEVGLALRTLLATVDETIPLLPASTHREIEMAQKLLNSDLGELINKMKLAQQYVMTSLQQEYKKQMLTAAHALAVDAKNLLDVIDQARLKMLGQTRPH
Consider B1, for which the Action entry was “Activates Akt”.
